Laboratory results published in article doi:10.1101/2021.01.27.428455 (bioRxiv, 2021).
Values joined by “and” are separate entries in the source; they are usually repeats but may differ in a detail not shown here. Equal values may be shown once. Read-outs that look alike come from different tables or passages of the source.

B1: Lactococcus lactis Csm3 Asp30Ala (natural protein)
chain: MKLVIEGTIVLKTGMHIGGSSDFSAIGAVASPVVRDTLTRLPLIPGSSLKGKMRYLLAKELNNGILLNEPNNDQDEILRLFGSSEKDKIRRARLKFNDIKLSNLAELETFNVSSTEVKFENTINRKTAVANPRQIERVIAGSKFDFEIFYNLDDIKEVEKDFENIKQGFDLLEFDYLGGHGTRGSGRIAFENLSVITAVGNFEKINTLNEILGA

Legend:
Experiment in all cases: cryo-EM structure
[1] = target: B1
cryo-EM structure [2] = target: the molecule itself
cryo-EM structure [3] = target: the molecule itself; remark: listed apart in the source

Row | Binder | binding result [1] | stoichiometry N (cryo-EM structure [2]) | stoichiometry N (cryo-EM structure [3])
1 | Lactococcus lactis Csm2 with N-terminal His6-tag (natural protein) TELKIGNEKVNSTNFGDFAEKAIRGINHKPFVNSKGGEQKITTSKIRGILELVNKVYNRVINTNDVELSENILADIAYIKVKIAYESGREPVVKDFIQRTAFTAAITDVMNQRTRESFLLFARYVESLIAYFKFYGGKD | binds | 3 and 2 | 
2 | B1 |  | 3 | 4
